This passage reports EC50 and Fold change results from patent US20200277377A1 (WUXI BIOLOGICS SHANGHAI, published 2020).

Residue numbers refer to the chain shown, from its start.

The target in assay [1] is T1, full length human CTLA-4 on cells (human, UniProt P16410 36-223).
T1 construct: whole, on cells; also called CTLA-4-expressing cell line
T1 sequence (looked up): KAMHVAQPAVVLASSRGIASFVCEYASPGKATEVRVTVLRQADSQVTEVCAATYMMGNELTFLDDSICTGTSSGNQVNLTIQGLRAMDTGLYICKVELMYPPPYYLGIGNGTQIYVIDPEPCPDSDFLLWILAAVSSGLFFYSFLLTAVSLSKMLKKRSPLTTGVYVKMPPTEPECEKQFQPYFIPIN
The assay is described as follows: FACS on human CTLA4 expression 293F cell line. The protocol: A number of 1×10⁵ cells per well was added to each well of a 96-well plate and centrifuged at 1500 rpm for 4 minutes at 4° C. before removing the supernatant. Serial dilutions of test antibodies, positive and negative controls were added to the resuspended cells and incubated for 1 hour at 4° C. The cells were washed two times with 200 μL DPBS containing 1% BSA. PE conjugated goat anti-human IgG (1:100) diluted in DPBS containing 1% BSA was added to the cells and incubated at 4° C. for 1 hour. Additional washing steps were performed two times with 200 μL DPBS containing 1% BSA followed by centrifugation at 1500 rpm for 4 minutes at 4° C. Finally, the cells were resuspended in 100 μL DPBS containing 1% BSA and fluorescence values were measured by flow cytometry and analyzed by FlowJo.

For assay [2], the target named is T2, hCTLA4_ECD.His point mutant V40 to alanine (human, UniProt P16410 36-161).
T2 construct: extracellular domain; alanine-scan mutein, HEK293F supernatant
T2 sequence (looked up): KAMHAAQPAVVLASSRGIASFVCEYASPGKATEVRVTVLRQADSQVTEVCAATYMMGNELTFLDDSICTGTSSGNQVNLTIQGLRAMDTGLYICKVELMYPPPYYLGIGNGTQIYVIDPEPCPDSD
The assay is described as follows: capture ELISA, alanine scan, vs silent alanine substitutions. The procedure: (§1) In order to test how the mutations affect antibody-binding, a capture ELISA was conducted. […] After interacting with the supernatant that contains quantified CTLA4 muteins, HRP conjugated anti-His antibody (1:5000; Rockland Immunochemicals, Pottstown, Pa.) was added as detection antibody. TMB was used as substance of HRP. Absorbance was normalized according to the average of control mutants. After setting an additional cutoff to the binding fold change (<0.55), the final determined epitope residues were identified.
A general note: ELISA stands for enzyme-linked immunosorbent assay.

The target of assay [3] is T3, hCTLA4_ECD.His point mutant Y60 to alanine (human, UniProt P16410 36-161).
T3 construct: extracellular domain; alanine-scan mutein, HEK293F supernatant
T3 sequence (looked up): T2 sequence (looked up) with A5V, Y25A
The description is as above. The procedure:
as §1

In assay [4] the target is T4, hCTLA4_ECD.His point mutant R70 to alanine (human, UniProt P16410 36-161).
T4 construct: extracellular domain; alanine-scan mutein, HEK293F supernatant
T4 sequence (looked up): T2 sequence (looked up) with A5V, R35A
The description is as above. The protocol:
as §1

The target of assay [5] is T5, hCTLA4_ECD.His point mutant L74 to alanine (human, UniProt P16410 36-161).
T5 construct: extracellular domain; alanine-scan mutein, HEK293F supernatant
T5 sequence (looked up): T2 sequence (looked up) with A5V, L39A
The description is as above. The procedure: as §1

Assay [6] has as its target T6, hCTLA4_ECD.His point mutant C85 to alanine (human, UniProt P16410 36-161).
T6 construct: extracellular domain; alanine-scan mutein, HEK293F supernatant
T6 sequence (looked up): T2 sequence (looked up) with A5V, C50A
The assay is described as above. The protocol:
as §1

For assay [7], the target named is T7, hCTLA4_ECD.His point mutant T88 to alanine (human, UniProt P16410 36-161).
T7 construct: extracellular domain; alanine-scan mutein, HEK293F supernatant
T7 sequence (looked up): T2 sequence (looked up) with A5V, T53A
Described as above. The procedure:
as §1

The target in assay [8] is T8, hCTLA4_ECD.His point mutant C129 to alanine (human, UniProt P16410 36-161).
T8 construct: extracellular domain; alanine-scan mutein, HEK293F supernatant
T8 sequence (looked up): T2 sequence (looked up) with A5V, C94A
The assay is described as above. The protocol: as §1

The target of assay [9] is T9, hCTLA4_ECD.His point mutant M134 to alanine (human, UniProt P16410 36-161).
T9 construct: extracellular domain; alanine-scan mutein, HEK293F supernatant
T9 sequence (looked up): T2 sequence (looked up) with A5V, M99A
The assay is described as above. The procedure:
as §1

Assay [10] has as its target T10, hCTLA4_ECD.His point mutant P138 to alanine (human, UniProt P16410 36-161).
T10 construct: extracellular domain; alanine-scan mutein, HEK293F supernatant
T10 sequence (looked up): T2 sequence (looked up) with A5V, P103A
The description is as above. The procedure: as §1

Assay [11] deals with T11, hCTLA4_ECD.His point mutant I149 to alanine (human, UniProt P16410 36-161).
T11 construct: extracellular domain; alanine-scan mutein, HEK293F supernatant
T11 sequence (looked up): T2 sequence (looked up) with A5V, I114A
The assay is described as above. The procedure: as §1

B1: W3162_1.154.8-z35-uAb.IgG1K (antibody, V domains shown)
VH: QVQLVQSGAEVKKPGSSVKVSCKASGYTFTNYFMNWVRQAPGQGLEWMGRVDPEQGRADYAEKFKKRVTITADKSTSTAYMELSSLRSEDTAVYYCARRAMDNYGFAYWGQGTLVTVSS
VL: EIVLTQSPDFQSVTPKEKVTITCSANSALSYMYWYQQKPDQSPKLWVHGTSNLASGVPSRFSGSGSGTDFTLTINSLEAEDAATYYCHHWSNTQWTFGGGTKVEIK
notes: Humanized; label says IgG1K
In general, EC50 refers to the concentration giving half of the maximal effect. Read a high EC50 as weaker potency. In assay [1], B1 displayed an EC50 of 0.66 nM. Also, the Fold change in assay [2] came out at 0.187 fold; in assay [3], 0.24 fold; in [4], 0.515 fold; in assay [5], 0.52 fold; in [6], 0.218 fold; in assay [7], 0.433 fold. Further, the Fold change came out at 0.211 fold in assay [8], 0.455 fold in assay [9], 0.339 fold in assay [10] and 0.319 fold in assay [11].

B2: W3162-1.146.19-z12-uAb.IgG1K (antibody, V domains shown)
VH: QVQLQESGPGLVKPSETLSLTCSVTYHTITSGYDWTWIRKPPGKGMEWIGYISYSGNTNYNPSLKSRVTISRDTSKNQFFLKLSSVTAADTAVYYCASMMVPHYYVMDAWGQGTLVTVSS
VL: DIVMTQTPLSLSVTPGQPASISCRSSQSLLNSDGNTYLYWYLQKPGQSPQLLIYLVSKLGSGVPNRFSGSGSGTDFTLKISRVEAEDVGVYYCVQGTHDPWTFGGGTKVEIK
notes: Humanized; label says IgG1K
In assay [1], B2 came in with a half-maximal effective concentration (EC50) of 1.58 nM. In addition, the Fold change in assay [2] is 0.181 fold; in assay [3] it was 0.223 fold; in assay [4], 0.507 fold; in assay [5], 0.398 fold; in assay [6] it was 0.256 fold; in assay [7], 0.423 fold. Also, the Fold change turned out to be 0.182 fold in assay [8], 0.254 fold in [9], 0.445 fold in assay [10] and 0.183 fold in assay [11].
